From US20190185581A1 (University of California, published 2019)
Substitutions are numbered along the chain they refer to.

B1: Fab 32D1 (Fab, V domains shown)
VH: EVQLVESGGGLVQPGGSLRLSCAASGFNLYYSYMHWVRQAPGKGLEWVASISPYSGYTYYADSVKGRFTISADTSKNTAYLQMNSLRAEDTAVYYCARMSLHRNFNQQGRSRLLGRMPRTYGMDYWGQGTLVTVSS
VL: DIQMTQSPSSLSASVGDRVTITCRASQSVSSAVAWYQQKPGKAPKLLIYSASSLYSGVPSRFSGSRSGTDFTLTISSLQPEDFATYYCQQYYSLITFGQGTKVEIKR
notes: not shown: His tag at the C-terminus of the heavy chain
B2: Fab R2C22 (Fab, V domains shown)
VH: EVQLVESGGGLVQPGGSLRLSCAASGFNIYSSYMHWVRQAPGKGLEWVASIYSSYGSTYYADSVKGRFTISADTSKNTAYLQMNSLRAEDTAVYYCARHSRDGWQHWFGNWAGLHSYGMDYWGQGTLVTVSS
VL: DIQMTQSPSSLSASVGDRVTITCRASQSVSSAVAWYQQKPGKAPKLLIYSASSLYSGVPSRFSGSRSGTDFTLTISSLQPEDFATYYCQQYYHYGYYLITFGQGTKVEIKR
B3: Fab R3C8 (Fab, V domains shown)
VH: EVQLVESGGGLVQPGGSLRLSCAASGFNFSSSSIHWVRQAPGKGLEWVASIYPSYSYTYYADSVKGRFTISADTSKNTAYLQMNSLRAEDTAVYYCARHCLLRSRRCEMSTKTRELNVYRYAMDYWGQGTLVTVSS
VL: B2 VL with Y91W, Y92P, H93V, Y94G, G95S, Y96S, L98P
B4: Fab R2C16 (Fab, V domains shown)
VH: EVQLVESGGGLVQPGGSLRLSCAASGFNIYSYSMHWVRQAPGKGLEWVASISSYYGYTYYADSVKGRFTISADTSKNTAYLQMNSLRAEDTAVYYCARFKNADFAAGGQWSKMLIARMYAMDYWGQGTLVTVSS
VL: B1 VL
B5: Fab R3C15 (Fab, V domains shown)
VH: EVQLVESGGGLVQPGGSLRLSCAASGFNISYSYMHWVRQAPGKGLEWVASISPYSGYTYYADSVKGRFTISADTSKNTAYLQMNSLRAEDTAVYYCARGVRGNKLRLLSSRSGRMESHYVMDYWGQGTLVTVSS
VL: B1 VL with Y91A, Y92G, I95F
B6: Fab R2C4 (Fab, V domains shown)
VH: EVQLVESGGGLVQPGGSLRLSCAASGFNLSYYYMHWVRQAPGKGLEWVAYISSYSGYTYYADSVKGRFTISADTSKNTAYLQMNSLRAEDTAVYYCARGWRVYADRGHVRGYFRVWYGMDYWGQGTLVTVSS
VL: B1 VL with Y91G, Y92A, S93G
B7: Fab R2C6 (Fab, V domains shown)
VH: EVQLVESGGGLVQPGGSLRLSCAASGFNIYYSSMHWVRQAPGKGLEWVAYISPYYGYTSYADSVKGRFTISADTSKNTAYLQMNSLRAEDTAVYYCARKDLLKTNRLTTRYKKSVSVGYGMDYWGQGTLVTVSS
VL: DIQMTQSPSSLSASVGDRVTITCRASQSVSSAVAWYQQKPGKAPKLLIYSASSLYSGVPSRFSGSRSGTDFTLTISSLQPEDFATYYCQQYVYPPFTFGQGTKVEIKR
B8: Fab 3B2 (Fab, V domains shown)
VH: EVQLVESGGGLVQPGGSLRLSCAASGFNFSSSSIHWVRQAPGKGLEWVASIYSSYSSTYYADSVKGRFTISADTSKNTAYLQMNSLRAEDTAVYYCARSTAATTLSRMSRSYWTIQLPYGMDYWGQGTLVTVSS
VL: B7 VL with Y91S, V92S, P94S, P95L, F96I
notes: also called R2C1; not shown: His tag at the C-terminus of the heavy chain
B9: Fab R2C12 (Fab, V domains shown)
VH: EVQLVESGGGLVQPGGSLRLSCAASGFNISSSYMHWVRQAPGKGLEWVASIYSYSSYTYYADSVKGRFTISADTSKNTAYLQMNSLRAEDTAVYYCARSDSWVQGRDFCYYSAWVGYGMDYWGQGTLVTVSS
VL: B7 VL with Y91G, V92Y, P94A, P95L
B10: Fab 32C11 (Fab, V domains shown)
VH: EVQLVESGGGLVQPGGSLRLSCAASGFNLYYSSIHWVRQAPGKGLEWVASISSYSSYTYYADSVKGRFTISADTSKNTAYLQMNSLRAEDTAVYYCAREIHMLSRQARYLRDGRRPRGSMYVMDYWGQGTLVTVSS
VL: B7 VL with V92G, Y93A, P94G, P95L, F96I
notes: also called R3C7; not shown: His tag at the C-terminus of the heavy chain
B11: Fab R3C10 (Fab, V domains shown)
VH: EVQLVESGGGLVQPGGSLRLSCAASGFNIYYSSMHWVRQAPGKGLEWVASISPYYGYTYYADSVKGRFTISADTSKNTAYLQMNSLRAEDTAVYYCARGSLRRDFNLVVRSSWDIRSNYVMDYWGQGTLVTVSS
VL: B7 VL with Y91S, V92W, Y93P, P94Y, F96I
B12: Fab 33F5 (Fab, V domains shown)
VH: EVQLVESGGGLVQPGGSLRLSCAASGFNLYYSYMHWVRQAPGKGLEWVAYISPSSSSTYYADSVKGRFTISADTSKNTAYLQMNSLRAEDTAVYYCARNFRVESAGRPGKTVLRKDGKYAMDYWGQGTLVTVSS
VL: B7 VL with Y91S, V92S, Y93V, P94G, P95L
notes: also called R2C20; not shown: His tag at the C-terminus of the heavy chain
B13: Fab R2C8 (Fab, V domains shown)
VH: EVQLVESGGGLVQPGGSLRLSCAASGFNISSSSIHWVRQAPGKGLEWVASIYPYYGSTSYADSVKGRFTISADTSKNTAYLQMNSLRAEDTAVYYCARPGRHLQTTFKGYQFKYSRYIYAMDYWGQGTLVTVSS
VL: DIQMTQSPSSLSASVGDRVTITCRASQSVSSAVAWYQQKPGKAPKLLIYSASSLYSGVPSRFSGSRSGTDFTLTISSLQPEDFATYYCQQWGHHGYLITFGQGTKVEIKR
B14: Fab R3C13 (Fab, V domains shown)
VH: EVQLVESGGGLVQPGGSLRLSCAASGFNIYYSYMHWVRQAPGKGLEWVASISSYSGSTSYADSVKGRFTISADTSKNTAYLQMNSLRAEDTAVYYCARWLRVSLKSGVYKVLARAVELDEYVMDYWGQGTLVTVSS
VL: B13 VL with W91S, H93Y, H94Y, G95A, Y96W, L97P
B15: Fab R2C11 (Fab, V domains shown)
VH: EVQLVESGGGLVQPGGSLRLSCAASGFNLYYSSIHWVRQAPGKGLEWVAYIYPSYSYTYYADSVKGRFTISADTSKNTAYLQMNSLRAEDTAVYYCARRYGSDVFCVGCFFGVRLSYVMDYWGQGTLVTVSS
VL: B13 VL with W91Y, G92V, H93S, H94S, Y96S
B16: Fab 32E10 (Fab, V domains shown)
VH: EVQLVESGGGLVQPGGSLRLSCAASGFNIYSYSMHWVRQAPGKGLEWVAYIYPYSGYTYYADSVKGRFTISADTSKNTAYLQMNSLRAEDTAVYYCARLDRDRYIHVGRAGNTYSNYYYVMDYWGQGTLVTVSS
VL: B13 VL with W91P, G92W, H93G, H94A, G95A, Y96S
notes: also called R2C19; not shown: His tag at the C-terminus of the heavy chain
B17: Fab R2C9 (Fab, V domains shown)
VH: EVQLVESGGGLVQPGGSLRLSCAASGFNIYSYSMHWVRQAPGKGLEWVAYIYPYSGYTYYADSVKGRFTISADTSKNTAYLQMNSLRAEDTAVYYCARVLNIFMDVGAARFPGLVRYGMDYWGQGTLVTVSS
VL: DIQMTQSPSSLSASVGDRVTITCRAGQDVSSAVAWYQQKPGKAPKLLIYSASTLHSGVPSRFSGSRSGTDFTLTISSLQPEDFATYYCQQSGPYSLFTFGQGTKVEIKR
B18: Fab 2E4 (Fab, V domains shown)
VH: EVQLVESGGGLVQPGGSLRLSCAASGFNLSYSYIHWVRQAPGKGLEWVAYISSSSGYTYYADSVKGRFTISADTSKNTAYLQMNSLRAEDTAVYYCARSARLRLRGNHDRRRSKSVYYRPYVMDYWGQGTLVTVSS
VL: B17 VL with G26S, D28S, T53S, H55Y, G92S, Y94S, S95F, L96P, F97I
notes: as for B1
B19: Fab 2H9 (Fab, V domains shown)
VH: EVQLVESGGGLVQPGGSLRLSCAASGFNIYYSSMHWVRQAPGKGLEWVASIYPYSGYTYYADSVKGRFTISADTSKNTAYLQMNSLRAEDTAVYYCARGTSFQVRCVLYRLLSPGRYVMDYWGQGTLVTVSS
VL: B17 VL with G26S, D28S, T53S, H55Y, P93Y, Y94S, S95Y, L96P
notes: as for B1

What follows are binders tested against T1, catalytic domain of MMP-14 (cdMMP-14) (human, UniProt P50281 114-287, limits assumed, biotinylated (Sulfo-NHS-LC-Biotin) where immobilised via streptavidin) (assay: cell-based or functional assay).

| Binder | IC50 by FRET Assay |
| --- | --- |
| B1 | 4200 nM |

What follows are binders tested against T1, catalytic domain of MMP-14 (cdMMP-14) (assay: ELISA, Fab titrated on immobilised biotin-cdMMP-14, anti-Fab-HRP).

| Binder | EC50 |
| --- | --- |
| B2 | 540 nM |
| B3 | 1300 nM |
| B4 | 1800 nM |
| B5 | 57.5 nM |
| B6 | 10000 nM |
| B7 | 2400 nM |
| B8 | 590 nM |
| B9 | 150 nM |
| B10 | 29 nM |
| B11 | 970 nM |
| B12 | 1600 nM |
| B13 | 1200 nM |
| B14 | 2000 nM |
| B15 | 750 nM |
| B16 | 9.7 nM |
| B17 | 657 nM |

What follows are binders tested against T1, catalytic domain of MMP-14 (cdMMP-14) (assay: ELISA, Fab titrated on immobilised MMP-14 catalytic domain, anti-Fab-HRP).
Procedure: Bound Fabs were detected using the anti-Fab-HRP conjugate. The half-maximal effective concentration (EC₅₀) was calculated from a four-parametric logistic curve-fitting analysis.

| Binder | EC50 |
| --- | --- |
| B1 | 350 nM |
| B8 | 590 nM |
| B10 | 29 nM |
| B12 | 1600 nM |
| B16 | 9.7 nM |
| B18 | 840 nM |
| B19 | 120 nM |

Target: T1, catalytic domain of MMP-14 (cdMMP-14)
Assay: cell-based or functional assay
Remark: another data set of the same source

| Binder | Inhibition potency (FRET IC50) |
| --- | --- |
| B2 | 75 nM |
| B3 | 5400 nM |
| B4 | 5500 nM |
| B5 | 170 nM |
| B6 | 1500 nM |
| B7 | 2400 nM |
| B9 | 150 nM |
| B11 | 1000 nM |
| B13 | 1200 nM |
| B14 | 2000 nM |
| B15 | 600 nM |
| B17 | 80 nM |
